Test results: US20260092116A1 (DARTSBIO PHARMACEUTICALS, published 2026)
One block for each binder: values may come before it.

Experiments:
[1] = molecular target: T1, his-tagged human B7H3 antigen protein (human, UniProt Q5ZPR3 29-461, limits assumed); assay: binding ELISA, plate coated with his-tagged B7H3 at 2 ug/ml
T1 construct: also called B7H3-his; CD276; not shown: his tag
T1 sequence (looked up): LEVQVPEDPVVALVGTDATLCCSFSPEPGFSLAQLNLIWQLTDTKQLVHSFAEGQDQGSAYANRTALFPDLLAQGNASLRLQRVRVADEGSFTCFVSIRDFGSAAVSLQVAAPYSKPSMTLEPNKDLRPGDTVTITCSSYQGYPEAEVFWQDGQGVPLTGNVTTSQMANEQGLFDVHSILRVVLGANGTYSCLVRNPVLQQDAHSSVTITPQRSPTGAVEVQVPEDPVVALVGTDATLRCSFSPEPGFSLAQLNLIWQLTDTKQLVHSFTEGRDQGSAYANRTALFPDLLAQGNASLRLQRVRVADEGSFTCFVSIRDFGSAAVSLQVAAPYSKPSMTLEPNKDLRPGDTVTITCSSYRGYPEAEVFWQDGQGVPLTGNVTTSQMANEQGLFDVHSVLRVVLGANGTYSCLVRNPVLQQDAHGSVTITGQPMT
Description: (§1) A 96-well ELISA plate was coated with 2 μg/ml of his-tagged PDL1 or B7H3 antigen protein at 4° C. overnight, and 100 μl of Casein blocking solution was added to each well the next day for blocking at 37° C. for 1 hour. […] After incubation at 37° C. for 1 hour, unbound antibodies were washed off with 0.1% PBST, and bound antibodies were detected using horseradish peroxidase (HRP)-conjugated goat anti-human IgG (H+L) antibody (Jackson ImmunoResearch, USA), and 50 μl of 3,3′,5,5′-tetramethylbenzidine substrate (TMB) was used for color development. After standing for 5 minutes, 50 μl of 2 M sulfuric acid was added to stop the color development, and then the absorbance was detected using a SpectraMax M5e (Molecular Devices) microplate reader at OD450 nm. The antibody concentration was plotted against the OD450 reading using a 4-parameter fitting method, and the EC₅₀ was calculated.

[2] = molecular target: T2, biotinylated PDL1 antigen (human, UniProt Q9NZQ7 19-238, biotinylated (sites not given)); assay: flow cytometry, blocking of biotinylated PDL1 (50 nM) binding to CHO-PD1 cells
T2 construct: also called human PDL1 (biotinylated)
T2 sequence (Q9NZQ7 19-238 limits assumed): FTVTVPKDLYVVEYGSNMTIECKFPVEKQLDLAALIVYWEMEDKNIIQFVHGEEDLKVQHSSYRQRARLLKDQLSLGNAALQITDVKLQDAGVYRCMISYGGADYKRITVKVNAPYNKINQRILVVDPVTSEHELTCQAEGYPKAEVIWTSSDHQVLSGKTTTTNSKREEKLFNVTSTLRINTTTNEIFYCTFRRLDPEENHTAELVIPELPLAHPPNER
Description: The mixed solution was then incubated with the cells at 4° C. for 45 minutes, and unbound antigens were washed off with PBS.
The cells were then fluorescently stained with PE-streptavidin. Finally, the mean fluorescence intensity (MFI) of the PE channel in the flow cytometer was read, the antibody concentration was plotted against MFI, and the IC₅₀ of the antibody was calculated using a four-parameter fitting.

[3] = molecular target: T3, his-tagged human PDL1 antigen protein (human, UniProt Q9NZQ7 19-238); assay: binding ELISA, plate coated with his-tagged PDL1 at 2 ug/ml
T3 construct: also called PDL1-his; not shown: his tag
T3 sequence (Q9NZQ7 19-238 limits assumed): as above
Description: as §1

[4] = molecular target: T4, B7H3 antigen (huB7H3 antigen) (human, UniProt Q5ZPR3 29-461, limits assumed); assay: BLI, VHH-Fc (100 nM) captured on Protein A probe, B7H3 antigen from 200 nM in 2-fold dilutions
T4 sequence (looked up): T1 sequence (looked up)
Description: The above phage clones were sequenced to obtain the B7H3 VHH gene sequence, and its C-terminus was fused with the human Fc protein gene to construct and express B7H3-Fc. 100nM of B7H3 VHH-Fc was captured by the biolayer interferometry method using the Protein A probe and bound to B7H3 antigen with an initial concentration of 200 nM, a 2-fold dilution. The KD value of the antibody binding to antigen was calculated.

[5] = molecular target: T1, his-tagged human B7H3 antigen protein; assay: BLI (Octet), antibody on Protein A probe, B7H3-his from 200 nM in 2-fold dilutions
Description: (§2) Kon and Koff values were calculated using the software provided by the supplier to obtain the KD value of the antibody.

[6] = molecular target: T1, his-tagged human B7H3 antigen protein; assay: ELISA on coated B7H3-his, bispecific antibody not heat-treated (4°C)
Description: as §1

[7] = molecular target: T1, his-tagged human B7H3 antigen protein; assay: ELISA on coated B7H3-his, bispecific antibody after 1 hour at 60°C
Description: as §1

[8] = molecular target: T3, his-tagged human PDL1 antigen protein; assay: ELISA on coated PDL1-his, bispecific antibody not heat-treated (4°C)
Description: as §1

[9] = molecular target: T3, his-tagged human PDL1 antigen protein; assay: ELISA on coated PDL1-his, bispecific antibody after 1 hour at 60°C
Description: as §1

[10] = molecular target: T3, his-tagged human PDL1 antigen protein; assay: BLI (Octet), antibody on Protein A probe, PDL1-his from 200 nM in 2-fold dilutions
Description: as §2

EC50 [1]: 0.0548 nM
B1: Enoblituzumab (MGA271) (antibody, V domains shown)
VH: EVQLVESGGGLVQPGGSLRLSCAASGFTFSSFGMHWVRQAPGKGLEWVAYISSDSSAIYYADTVKGRFTISRDNAKNSLYLQMNSLRDEDTAVYYCGRGRENIYYGSRLDYWGQGTTVTVSS
VL: DIQLTQSPSFLSASVGDRVTITCKASQNVDTNVAWYQQKPGKAPKALIYSASYRYSGVPSRFSGSGSGTDFTLTISSLQPEDFATYYCQQYNNYPFTFGQGTKLEIKR

IC50 [2]: 94.2 nM
EC50 [3]: 0.441 nM
B2: PDL1 monoclonal antibody (antibody, human IgG1, kappa, V domains shown)
VH: QVQLVQSGAEVKKPGASVKVSCKASGYTFTTFGVHWVRQAPGKGLEWVGIIWPGGNTNYNSALMSRVTITADESTSTAYMELSSLRSEDTAVYYCARENYGRAMDYWGQGTTVTVSS
VL: DIQMTQSPSSLSASVGDRVTISCRASQSINTYLHWYQQKLGQAPRLLIYYASQSISGVPSRFSGSGSGTDFTLTINSLEAEDAATYYCQNGHSFPLTFGAGTKVEIKR
notes: Parental humanized IgG1 of the bispecific antibody; also called PDL1 hIgG1 humanized monoclonal antibody

Kd [4]: 3.24 nM
EC50 [1]: 0.0251 nM
B3: B7H3 VHH-Fc (humanized anti-B7H3 VHH 75-16 fused to human Fc) (Fc fusion)
chain: DVQLQESGGGLVQAGGSLRLSCTASGYTLSTIWIGWFRQAPGKGLEGVAAIYIGSGATYYVDSVKGRFTISQDNAKNTVYLQMNSLKPEDTAMYYCAATGGTVGSMVRFSPVGDFGYWGQGTQVTVSS
notes: also called B7H3-Fc; not shown: human Fc fused to the C-terminus of the VHH

Kd [5]: 8.11 nM
IC50 [2]: 106 nM
EC50 [3]: 0.306 nM
EC50 (read off the curve) [6]: ~0.02 nM
EC50 (read off the curve) [7]: ~0.02 nM
EC50 (read off the curve) [8]: ~0.04 nM
EC50 [1]: 0.0411 nM
EC50 (read off the curve) [9]: ~0.04 nM
Kd [10]: 0.585 nM
B4: B7H3/PDL1 bispecific antibody (bispecific antibody, human IgG1, kappa)
heavy: not shown
light: DIQMTQSPSSLSASVGDRVTISCRASQSINTYLHWYQQKLGQAPRLLIYYASQSISGVPSRFSGSGSGTDFTLTINSLEAEDAATYYCQNGHSFPLTFGAGTKVEIKRTVAAPSVFIFPPSDEQLKSGTASVVCLLNNFYPREAKVQWKVDNALQSGNSQESVTEQDSKDSTYSLSSTLTLSKADYEKHKVYACEVTHQGLSSPVTKSFNRGEC
notes: Anti-PDL1 hIgG1 with one anti-B7H3 VHH (75-16) at the C-terminus of each heavy chain's Fc; also called IgG-VHH2
